The values that follow come from patent US20220119541A1 (PHARMAEXPLORER, published 2022).

Where two headings read alike, the source gives them in different places.

Experiment [1] deals with T1, monkey GITR (full length, on cells) (monkey).
T1 construct: whole, on cells; also called cGITR
Description: flow cytometry (FACS) on 293F-cGITR cells, MFI curve fit. The method, then:
(§1) The pIRES plasmid with the monkey-derived GITR full-length gene was transfected into the HEK293 cell line to construct a HEK293 stable cell line containing monkey GITR (herein referred to as HEK293-cGITR stable cell line), wherein the database accession number of the monkey GITR nucleotide sequence is XP_005545180.1. The tool antibody Tab9H6v3 was constructed with reference to the patent (US_2015_0064204_A1). […] The medium was aspirated, and the cells were incubated with chimeric anti-GITR antibody or IgG1 isotype control antibody in PBS+2% FBS for 1 hour so that the antibody binds to the GITR protein expressed on the cell surface. Cells were collected and washed, and then incubated with anti-human antibody conjugated with fluorescent dye at 4° C. for 1 hour. Mean fluorescence intensity (MFI) of chimeric anti-GITR antibodies bound to cells expressing hGITR or cGITR was determined by flow cytometry. The EC50 of the fitting curve was calculated by GraphPad Prism software. The antibody to be tested can bind to human or monkey GITR protein on the cell surface. The data in the table is the average fluorescence intensity values of the cell populations measured by MFI.

The target of experiment [2] is T2, hGITR-ECD-hFc (human, UniProt Q9Y5U5 26-161).
T2 construct: ECD put first; also called immunogen A; human GITR extracellular domain protein with hFc tag; not shown: human IgG Fc fragment (hFc) of the pCpC vector
T2 chain: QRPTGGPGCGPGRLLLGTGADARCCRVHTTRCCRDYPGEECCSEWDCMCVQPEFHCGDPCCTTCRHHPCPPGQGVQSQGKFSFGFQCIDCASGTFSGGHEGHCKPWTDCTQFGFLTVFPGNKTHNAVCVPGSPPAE
Kind of experiment: ELISA, hGITR-ECD-hFc coated on plate, HRP anti-human Fab detection. On the procedure:
(§2) HGITR-ECD-hFc protein and cGITR-ECD-hFc protein were diluted to 1 μg/ml with PBS hydrochloric acid buffer (pH 7.2), and 100 μl dilution was added to 96-well ELISA microplate, and incubated at 4° C. overnight. The microplate was washed three times with 300 μl/well wash buffer PBST (PBS+0.05% Tween-20), 300 μl blocking buffer (PBST+1% BSA) was added to each well, and incubated at room temperature for 2 hours. The plate was washed three times, 100 μl, 10 μg/ml anti-GITR antibody was added to each well, and was incubated at 37° C. for 1 hour. The plate was washed three times, 100 μl horseradish peroxidase (HRP) labeled anti-human Fab secondary antibody was added to each well, and was incubated at 37° C. for half an hour. The plate was washed three times, 100 μl tetramethylbenzidine (TMB) was added to each well. After 15 minutes of color development, 50 μl 1N HCl termination solution was added to each well, and the OD450 value was read with a plate reader. The EC50 of the binding curve was calculated by GraphPad Prism software.
The binding activity of the engineered fully human anti-GITR antibody to the hGITR-ECD-hFc protein or the cGITR-ECD-hFc protein was detected by an enzyme-linked immunosorbent assay iaccording to the step (1) of Example 5.

In experiment [3] the target is T3, human GITR (full length, on cells) (human, UniProt Q9Y5U5 26-241).
T3 sequence (looked up): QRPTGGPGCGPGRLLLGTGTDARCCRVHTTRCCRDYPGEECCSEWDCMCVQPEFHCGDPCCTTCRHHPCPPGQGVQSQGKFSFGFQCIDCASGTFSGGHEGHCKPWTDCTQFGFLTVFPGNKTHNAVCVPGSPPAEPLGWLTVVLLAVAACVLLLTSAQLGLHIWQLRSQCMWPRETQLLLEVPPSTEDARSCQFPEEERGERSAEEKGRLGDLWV
Description: cell-based or functional assay.

For experiment [4], the target named is T2, hGITR-ECD-hFc. Description: ELISA, hGITR-ECD-hFc coated on plate, HRP anti-human Fab detection. The method, then:
as §2

Experiment [5] deals with T1, monkey GITR (full length, on cells). Kind of experiment: flow cytometry (FACS) on 293F-cGITR cells, MFI curve fit. On the procedure:
as §1
The source holds these as a separate data set.

In experiment [6] the target is T2, hGITR-ECD-hFc. Kind of experiment: SPR (Biacore T200), hGITR-ECD-hFc immobilised on CM5 chip, antibody as analyte. On the procedure:
The antigen hGITR-ECD-hFc was immobilized on the chip surface in manual mode using the running buffer HBS-EP+(10 mM HEPES, 150 mM NaCl, 3 mM EDTA, 0.05% P20, pH 7.4). First, a fresh mixture of 50 mM NHS and 200 mM EDC was used to activate the flow cell 4 of the tandem S CM5 sensor chip. The antigen was then diluted to 1 μg/ml with 10 mM NaAC (pH 5.0) and was injected into flow cell 4 for approximately 40 seconds. Finally, 1 M ethanolamine was used to block the remaining active coupling sites.
Buffer flow was maintained for 600 seconds to determine dissociation. To remove the test antibody from the surface, 10 mM Glycine-HCl (pH 1.5) was injected into flow cells 1 and 4 at a flow rate of 10 μ L/min for 30 seconds. The above steps were repeated for each concentration of continuously diluted antibodies.
The KD value of each antibody was evaluated using Biacore T200 evaluation software 3.0, where flow cell 1 was used as a reference flow cell.

Experiment [7] addresses T3, human GITR (full length, on cells). Kind of experiment: cell-based or functional assay. The source holds these as a separate data set.
For experiment [8] the target is unchanged. Kind of experiment: flow cytometry (FACS) on 293F-hGITR cells, MFI curve fit. On the procedure: as §1
For experiment [9] the target is unchanged. Described as above. The method, then:
as §1
This is another data set of the same source.

Experiment [10] concerns the target T4, cGITR-ECD-hFc (rhesus; human, UniProt F7DDV8 14-149). Description: ELISA, cGITR-ECD-hFc coated on plate, HRP anti-human Fab detection.
Experiment [11] has as its target T4, cGITR-ECD-hFc. Described as above. The source holds these as a separate data set.

T4 sequence (F7DDV8 entry or part of it): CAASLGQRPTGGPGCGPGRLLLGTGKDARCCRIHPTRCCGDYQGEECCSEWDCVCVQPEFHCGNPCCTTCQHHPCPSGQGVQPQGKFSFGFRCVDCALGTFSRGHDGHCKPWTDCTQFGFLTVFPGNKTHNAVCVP

B1: 3503-hab070 (antibody, V domains shown)
VH: QVQLVESGGGVVQPGRSLRLSCAASGFTFSSYGMHWVRQAPGKGLEWVAVIWYETSNKFYVDSVKGRFTISRDNSKNTLYLQMNSLRAEDTAVYYCARYGASSGWYWYFDLWGRGTLVTVSS
VL: DIQLTQSPSFLSASVGDRVTITCRASQGISSFLAWYQQKPGKAPKLLIYAASTLQSGVPSRFSGSGSGTEFTLTISSLQPEDFATYCCQQLNSYPFTFGQGTKLEIK
notes: also called 272G5E1; fully human anti-GITR antibody
For the molecule B1, the EC50 in [1] came out at 0.258 nM; in experiment [2] it was 0.078 nM; in experiment [4], 0.0544 nM; in experiment [5], 0.301 nM; in experiment [8], 0.203 nM; in [9], 0.141 nM. The EC50 in [10] came to 0.063 nM; in experiment [11] it was 0.0529 nM. Moreover, the “Activation of NF-κB activity, EC50 (nM), Coupling” value was 2.55 nM in experiment [3] and 5.78 nM in experiment [7]. Moreover, the “Activation of NF-κB activity, EC50 (nM), Non-coupling” value in experiment [3] was determined as 0.276 nM; in experiment [7], 0.0959 nM. Further, the equilibrium dissociation constant (Kd) in experiment [6] turned out to be 0.251 nM. Also, the koff in experiment [6] was 0.000185 s⁻¹. Also, the kon in experiment [6] came to 737000 M⁻¹ s⁻¹.
